Data: the supplement of paper PMC9170038

System: MS2 coat protein
Experiment: apparent KD of MS2 coat protein; designed switch direction (-1 OFF switch, 1 ON switch): -1; higher = weaker reporter binding
Method in brief: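 Stalled E. coli RNA polymerase transcribed designed RNA switches on Illumina chips, which were then titrated with SNAP-549-labelled MS2 coat protein, doubling from 0.7 or 1.5 nM to 3 µM. Steps lasted from 0.8–1.5 h at the lowest concentration to 10–20 min at the highest. The apparent KD is each design's median over clusters of curve-fitted normalised fluorescence.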

[1] = input ligand: microRNA oligo, concentration not stated
[2] = Eterna round: R95, input ligand: microRNA oligo, concentration not stated
[3] = Eterna round: R95, input ligand: FMN 200 uM
[4] = Eterna round: R95, input ligand: none

CCUUAGUUAGGAUAUCGGAUUGUUCACGGUGCUCACCGGGUCGAGAAGGAACAUGAGGAUCACCCAUGUCACGA [Eternabot (L1) Solution 72] (Eterna round: R97, puzzle: Exclusion 4)
apparent KD of MS2 coat protein (input ligand: FMN 200 uM): 60.1 nM
apparent KD of MS2 coat protein (input ligand: none): 42.5 nM

UUCGUGCAGCUUUGCUGUACGCGUACAUGAGGAUCACCCAUGUAGGAUAUGGUAGGCUUUGCUUACUAGAAGGAUAUUGUGAUC [JL EXNG3 1.32] (Eterna round: R96, puzzle: Exclusion NG 3)
apparent KD of MS2 coat protein (input ligand: FMN 200 uM): 256 nM
apparent KD of MS2 coat protein [1]: 80.9 nM
apparent KD of MS2 coat protein (input ligand: none): 123 nM

CUUUUGUGAGGAUAUCAGUAGUAAUACAAUAGUAUUACUACUGAGAAGGUACAUGAGGAUCACCCAUGUUCCUC [Ex4 344 Omei mod 4] (puzzle: Exclusion 4)
apparent KD of MS2 coat protein [2]: 17.9 nM

UUUGAUGUUGAGGAUAUGCUUUUUUUUAUUAUAGCAGAAGGCGAUACAUGAGGAUCACCCAUGUUCAUGGCUUU [JR_E6_Sub098] (puzzle: Exclusion 6)
apparent KD of MS2 coat protein [2]: 14.1 nM

UGUUUAUAUGAAGGAUAUACUUAACAUGAGGAUCACCCAUGUGGUGUUGUGAGUGAGUGAGUUUAGUAGAAGGUCAAUUCUUUU [JMF's solution 97] (Eterna round: R96, puzzle: Exclusion NG 2)
apparent KD of MS2 coat protein (input ligand: FMN 200 uM): 996 nM
apparent KD of MS2 coat protein [1]: 553 nM
apparent KD of MS2 coat protein (input ligand: none): 425 nM

GUCGUGUUAGGAUAUUGGCCUUUUAGAUGCACUAAGUGAGACGAGAAGGGACAUGAGGAUCACCCAUGUAAUAA [Eternabot (L1) Solution 69] (Eterna round: R97, puzzle: Exclusion 4)
apparent KD of MS2 coat protein (input ligand: FMN 200 uM): 47.4 nM
apparent KD of MS2 coat protein (input ligand: none): 36.4 nM

ACUAGCUUUUUGCAUAGUAGGUUUGGUGCUUCGUAUGCAACAUGAGGAUCACCCAUGUAUUACUGAUGUCGUCGUUU [JR_SV3TOV2_Sub092] (puzzle: Sensor v3, turn-off variant 2)
apparent KD of MS2 coat protein [3]: 26.2 nM
apparent KD of MS2 coat protein [2]: 48.2 nM
apparent KD of MS2 coat protein [4]: 27.8 nM

AAACCCGCGCGAGGAUAUCACAUGAGGAUCACCCAUGUGGCACUCCGUCACCGGGCAGUCCCGAGUGAGAAGGUGCAGGCGGAA [Entereis] (Eterna round: R96, puzzle: Exclusion NG 2)
apparent KD of MS2 coat protein (input ligand: FMN 200 uM): 27.5 nM
apparent KD of MS2 coat protein [1]: 32.4 nM
apparent KD of MS2 coat protein (input ligand: none): 23.4 nM

AAAAAAAAGAUAGGAUAUUAGAAAAAAAUGGUGAUAGAGACAUGAGGAUCACCCAUGUAAAAAAAUAAGAAGGGUCAAAAAAAA [AK ExNG2-V2-5] (Eterna round: R96, puzzle: Exclusion NG 2)
apparent KD of MS2 coat protein (input ligand: FMN 200 uM): 322 nM
apparent KD of MS2 coat protein [1]: 298 nM
apparent KD of MS2 coat protein (input ligand: none): 362 nM

CCAAACUGAGGAUAUACAUGAGGAUCACCCAUGUGCCCGCGGUCAUAUGUAGCCUAGUGUAGAAGGCAGAAAAC [Rearle] (Eterna round: R96, puzzle: Exclusion 3)
apparent KD of MS2 coat protein (input ligand: FMN 200 uM): 24.9 nM
apparent KD of MS2 coat protein [1]: 41.8 nM
apparent KD of MS2 coat protein (input ligand: none): 50.9 nM

GCUUCUGGGCAAGGAUAUCCUGCGCUGUUCUGGUUCGUGUCUGUCACAUGAGGAUCACCCAUGUGGGAGAAGGUGCCUGUGGCG [Design 67] (Eterna round: R96, puzzle: Exclusion NG 2)
apparent KD of MS2 coat protein (input ligand: FMN 200 uM): 20.9 nM
apparent KD of MS2 coat protein [1]: 17 nM
apparent KD of MS2 coat protein (input ligand: none): 24.8 nM

GCCUUACCGGUCAGGAUAUACAUUCGUCACUCCUUGUAGAAGGGACAUGAGGAUCACCCAUGUACAUUACAUUC [alecazam41] (Eterna round: R97, puzzle: Brourd's mod of Exclusion 4)
apparent KD of MS2 coat protein (input ligand: FMN 200 uM): 22 nM
apparent KD of MS2 coat protein (input ligand: none): 26.1 nM

CUCGUGCAGCUUUGCUGUACGAGUACAUGAGGAUCACCCAUGUAGGAUAUGGUACGCUUUGCGUGCUAGAAGGACGUGUGUAUG [JL EXNG3 1.39] (Eterna round: R96, puzzle: Exclusion NG 3)
apparent KD of MS2 coat protein (input ligand: FMN 200 uM): 117 nM
apparent KD of MS2 coat protein [1]: 29 nM
apparent KD of MS2 coat protein (input ligand: none): 31.8 nM

GCAGCAUAGUGUUAUUACACAAUACAUGAGGAUCACCCAUGUGAGGAUAUGGACUGGAUUACAGUCCAGAAGGCACAAAGCUGC [Zipper Style 3] (Eterna round: R96, puzzle: Exclusion NG 3)
apparent KD of MS2 coat protein (input ligand: FMN 200 uM): 21.7 nM
apparent KD of MS2 coat protein [1]: 12.5 nM
apparent KD of MS2 coat protein (input ligand: none): 19.8 nM

CCGAGGUAGCGGUCCUAUGACAUGAGGAUCACCCAUGUACCUCGCUACGAGCUUUUUGCUCGUCUUAAAAUUCUCGG [Mat - Sensor v3 - turn-off var 1 - JL Mod - D29] (puzzle: Sensor v3, turn-off variant 1)
apparent KD of MS2 coat protein [3]: 47 nM
apparent KD of MS2 coat protein [2]: 156 nM
apparent KD of MS2 coat protein [4]: 54 nM

CCAAACUGAGGAUAUACAUGAGGAUCACCCAUGUGCCCGCGGUCAUAUGUAGCCUAGUGUAGAAGGCAGAAAAC [Rearle] (puzzle: Exclusion 3)
apparent KD of MS2 coat protein [2]: 33 nM

UCAUGGUAGCAGGAUAUGCUUGUUUUUUUUUUUGCAGAAGGGCUUACAUGAGGAUCACCCAUGUGAGAGGUCUA [JR_E6_Sub066] (puzzle: Exclusion 6)
apparent KD of MS2 coat protein [2]: 19.9 nM

UGUUGUUCAGGAUAUGAUGUAUAAUACAUGAGGAUCACCCAUGUAGAUCCUGCUUUGGCGUCAGAAGGGAAUGUUG [salish99_ex5_r4_107] (Eterna round: R97, puzzle: Exclusion 5)
apparent KD of MS2 coat protein (input ligand: FMN 200 uM): 55.9 nM
apparent KD of MS2 coat protein (input ligand: none): 51.8 nM

ACGCUAUGAGGAUAUACAUGAGGAUCACCCAUGUCCCGAUGGUGUUUCCAUUGGAGACGUAGAAGGUAUGGUUA [Eternabot (L2) Solution 13] (Eterna round: R97, puzzle: Exclusion 3)
apparent KD of MS2 coat protein (input ligand: FMN 200 uM): 169 nM
apparent KD of MS2 coat protein (input ligand: none): 172 nM

CUUAAGUUAGGAUAUGCGCUACGGAAUCGUGGUUAUAGAUAGCAGAAGGAACUUGAGGAUCACCCAAGUAAAUA [Reerored] (Eterna round: R97, puzzle: Exclusion 4)
apparent KD of MS2 coat protein (input ligand: FMN 200 uM): 116 nM
apparent KD of MS2 coat protein (input ligand: none): 137 nM

UAUGGUUAAGUCAGGAUAUACUAAUAGAAGUCUGUGUAGAAGGGACAUGAGGAUCACCCAUGUAUGGUAGUGUU [Ex4 #60] (Eterna round: R97, puzzle: Brourd's mod of Exclusion 4)
apparent KD of MS2 coat protein (input ligand: FMN 200 uM): 119 nM
apparent KD of MS2 coat protein (input ligand: none): 122 nM

CAACAACGAGGAUAUACAUGAGGAUCACCCAUGUAAGAAAAGACAUAAACCGCCUGGUGUAGAAGGCGUAAAAC [Xeonesar] (Eterna round: R97, puzzle: Exclusion 3)
apparent KD of MS2 coat protein (input ligand: FMN 200 uM): 25.2 nM
apparent KD of MS2 coat protein (input ligand: none): 38.2 nM

GCAGCAAAAUUCCAUAAAACCACAUGAGGAUCACCCAUGUCUCAGGAUAUGGUCUGGAUUACAGGCCAGAAGGGAGAAAGCUGC [Eli exng3 - 058] (Eterna round: R96, puzzle: Exclusion NG 3)
apparent KD of MS2 coat protein (input ligand: FMN 200 uM): 14.6 nM
apparent KD of MS2 coat protein [1]: 12.6 nM
apparent KD of MS2 coat protein (input ligand: none): 13.9 nM

CCCGAGCUAGGAUAUGCACAAGGUAUCGAUCCACAACACACACAUGAGGAUCACCCAUGUAGAAGGAGCAUCGU [Eternabot (L2) Solution 27] (Eterna round: R97, puzzle: Exclusion 2)
apparent KD of MS2 coat protein (input ligand: FMN 200 uM): 165 nM
apparent KD of MS2 coat protein (input ligand: none): 77.9 nM

UUUUAGAGAGGAUAUAUAUUGUGAAACAUGAGGAUCACCCAUGUAAUAAUAUGGAUGUAAAUAGAAGGCUCAUUUA [JL-ex5-3.03] (puzzle: Exclusion 5)
apparent KD of MS2 coat protein [3]: 37.5 nM
apparent KD of MS2 coat protein [2]: 44.6 nM
apparent KD of MS2 coat protein [4]: 42.7 nM

GGAUAUAGGCGAGGAUAUACGCACCACUAACUAGUAGAAGGCGCACAUGAGGAUCACCCAUGUGAUUUCUCAAUAUGAUACACG [Prohibition 71 - Jieux - Exclusion NG 1] (Eterna round: R96, puzzle: Exclusion NG 1)
apparent KD of MS2 coat protein (input ligand: FMN 200 uM): 218 nM
apparent KD of MS2 coat protein [1]: 107 nM
apparent KD of MS2 coat protein (input ligand: none): 183 nM

UUGAUGUCAUCAGGAUAUAGUAUUUAAGACAUAUCUUCUUUCAAACAUGAGGAUCACCCAUGUCGCUAGAAGGGAUGAUUGAUU [JR_ExcNG2_Sub084] (Eterna round: R96, puzzle: Exclusion NG 2)
apparent KD of MS2 coat protein [1]: 11.9 nM

GGAUUACAUGAGGAUCACCCAUGUGAGGAUAUCGAUGUCCAGUAAUACGUGCGGGACUCGAGAAGGCACUUGGA [salish99-ex1-70] (Eterna round: R96, puzzle: Exclusion 1)
apparent KD of MS2 coat protein (input ligand: FMN 200 uM): 432 nM
apparent KD of MS2 coat protein [1]: 80.7 nM
apparent KD of MS2 coat protein (input ligand: none): 96.3 nM

AGGUGACAUGAGGAUCACCCAUGUAAGGAUAUACGGUUAGUGGAGAGAGGGAAGAGAGGUAGAAGGUACGGAGC [JR_Exclu1_Sub058] (puzzle: Exclusion 1)
apparent KD of MS2 coat protein [3]: 240 nM
apparent KD of MS2 coat protein [2]: 227 nM
apparent KD of MS2 coat protein [4]: 316 nM

AUUUAAUUUAGCGAGAUCACAUGAGGAUCACCCAUGUAUAUAUAGGAUAUCAGCUCGUGUAGAGCUGAGAAGGAUAUAUACCGC [ExNG3/7-A3] (Eterna round: R96, puzzle: Exclusion NG 3)
apparent KD of MS2 coat protein (input ligand: FMN 200 uM): 108 nM
apparent KD of MS2 coat protein [1]: 72.5 nM
apparent KD of MS2 coat protein (input ligand: none): 88.1 nM

AUACCACGAGGAUAUCGUCUAUAAUACAUGAGGAUCACCCAUGUUAUAUCUGUAAUGUUUCGAGAAGGCGUUUGUU [JR_E5_Sub085] (puzzle: Exclusion 5)
apparent KD of MS2 coat protein [2]: 21.3 nM

UUUAAUUUUUUUUUUUUACAAGCUUUUUGCUCGUCUUAUACAUGAGGAUCACCCAUGUGAAUGGAGGGUAAAUUAUC [JMF 84] (puzzle: Sensor v3, turn-off variant 2)
apparent KD of MS2 coat protein [3]: 19.4 nM
apparent KD of MS2 coat protein [2]: 42.5 nM
apparent KD of MS2 coat protein [4]: 16.8 nM

CGCCUGUUAGGAUAUUAGUAGUAGUCAGAAUAGACUAUUACUGAGAAGGGACAUGAGGAUCACCCAUGUUGGCG [Eli x4 4.12] (Eterna round: R97, puzzle: Exclusion 4)
apparent KD of MS2 coat protein (input ligand: FMN 200 uM): 22.2 nM
apparent KD of MS2 coat protein (input ligand: none): 18.8 nM

GAUGGACAUGAGGAUCACCCAUGUAAGGAUAUUGUUUGUGGCUAGUUUUGGUUACGGGCGAGAAGGUACUCGUC [-19.7, -16.7 kcal, A 23%] (Eterna round: R97, puzzle: Exclusion 1)
apparent KD of MS2 coat protein (input ligand: FMN 200 uM): 39.7 nM
apparent KD of MS2 coat protein (input ligand: none): 47.7 nM
